Starred links: 1 amine or outer side, 2 acyl side, 3 side chain; linkers in the order of their positions; H or OH if unused. Positions of bridges follow the written chain, without caps; N, C: chain ends. Non-standard residues stand in square brackets, D forms with d. Groups on a side chain read outwards from the residue. Primed or numbered codes have the meaning given here. *: point of attachment. Ala(piperidin-4-yl) = O=C([C@H](CC1CCN([*:3])CC1)N[*:1])[*:2]; DOTA = O=C(O)CN1CCN(CC(=O)O)CCN(CC(=O)*)CCN(CC(=O)O)CC1; Trp(5-F) = N[C@@H](Cc1c[nH]c2ccc(F)cc12)C(=O)O; γGlu = O=C(O)[C@H](CCC(=O)[*:2])N[*:1]; 1Nal = N[C@@H](Cc1cccc2ccccc12)C(=O)O; Val(3-OH) = CC(C)(O)[C@H](N)C(=O)O; 4Pal = N[C@@H](Cc1ccncc1)C(=O)O; Tle = CC(C)(C)[C@H](N)C(=O)O; hLeu = CC(C)CC[C@H](N)C(=O)O; Nle = CCCC[C@H](N)C(=O)O; PEG8′ = not defined here
T1: Biotinylated human 4Ig B7-H3 (human, UniProt Q5ZPR3 29-461, limits assumed, biotinylated (site not stated))
T1 construct: Protein captured on the SA chip for SPR; also called 4lg-B7-H3; B7-H3 isoform 4Ig
T1 sequence: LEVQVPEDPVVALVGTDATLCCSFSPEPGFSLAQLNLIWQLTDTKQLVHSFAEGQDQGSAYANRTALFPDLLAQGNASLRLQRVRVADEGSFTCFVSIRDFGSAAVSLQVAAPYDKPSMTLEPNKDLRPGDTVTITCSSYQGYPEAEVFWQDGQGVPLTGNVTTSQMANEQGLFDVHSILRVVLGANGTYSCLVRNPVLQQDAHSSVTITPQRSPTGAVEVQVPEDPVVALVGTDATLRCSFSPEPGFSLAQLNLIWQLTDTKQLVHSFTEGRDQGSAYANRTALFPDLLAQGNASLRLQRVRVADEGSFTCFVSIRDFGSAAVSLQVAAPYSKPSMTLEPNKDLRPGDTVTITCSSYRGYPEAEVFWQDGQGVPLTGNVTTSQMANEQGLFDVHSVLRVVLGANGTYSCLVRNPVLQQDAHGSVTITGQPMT

T2: B7-H3 on Calu-6 cells (human, UniProt Q5ZPR3 29-534)
T2 construct: whole, on cells
T2 sequence (looked up): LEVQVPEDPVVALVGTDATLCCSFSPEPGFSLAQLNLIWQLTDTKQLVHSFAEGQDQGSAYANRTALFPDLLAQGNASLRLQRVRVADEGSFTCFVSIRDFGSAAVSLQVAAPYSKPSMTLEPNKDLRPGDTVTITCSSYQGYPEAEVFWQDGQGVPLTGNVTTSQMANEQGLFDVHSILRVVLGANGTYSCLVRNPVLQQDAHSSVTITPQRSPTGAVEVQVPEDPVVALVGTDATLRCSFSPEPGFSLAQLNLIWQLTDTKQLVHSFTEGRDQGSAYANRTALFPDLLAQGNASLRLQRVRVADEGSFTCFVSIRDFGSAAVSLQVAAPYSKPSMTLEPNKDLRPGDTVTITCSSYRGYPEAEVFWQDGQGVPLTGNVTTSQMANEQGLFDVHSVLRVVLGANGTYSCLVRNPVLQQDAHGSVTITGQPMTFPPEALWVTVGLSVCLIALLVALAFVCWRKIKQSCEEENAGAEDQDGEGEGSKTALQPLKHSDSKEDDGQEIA


Key:
[1] = target: T1, Biotinylated human 4Ig B7-H3; assay: SPR 37C; C = 10<KD<=100 nM
B7-H3 on Calu-6 cells = target: T2, B7-H3 on Calu-6 cells; assay: 177Lu-labelled peptide on Calu-6 cells, % cell associated fraction; B = 25<%<=50

KD [1]	% cell associated fraction (B7-H3 on Calu-6 cells)	Binder
10 to 100 nM		{DOTA-PEG8′}-[Nle]YCVGKYDVYCWF-NH2 (disulfide 3-11) [Cpd 5]
	25 to 50%	Ac-[hLeu]YC[Tle]GK([γGlu-DOTA])[4Pal]DVYC[1Nal]FP-NH2 (disulfide 3-11) [Cpd 252]
	25 to 50%	Ac-[hLeu]YCIGK(DOTA)[Ala(piperidin-4-yl)]DVYC[Trp(5-F)]F[Val(3-OH)]-NH2 (disulfide 3-11) [Cpd 203]
	25 to 50%	Ac-[hLeu]YCIGK(DOTA)[4Pal]DVYC[Trp(5-F)]F[Val(3-OH)]-NH2 (disulfide 3-11) [Cpd 230]
